The Kd is the equilibrium constant for the complex coming apart. Read a high Kd as lower affinity.

Data on 1 substance can be found in paper PMC6556216.

The experiment addresses Maporal virus (MPRLV) Gn/Gc virus-like particles (Maporal virus (MPRLV)). As to the kind of experiment: BLI.

As for “soluble PCDH1 EC1-EC2 (sEC1–2) (from UniProt Q08174-1 58-284) (domain or fragment)”, the Kd came to 7 nM.
